Reference: PMC7261170 (Nucleic Acids Research, 2020)

T1: CBP-CWC22-S (residues 100-665) (human, UniProt Q9HCG8 100-665)
T1 sequence (looked up): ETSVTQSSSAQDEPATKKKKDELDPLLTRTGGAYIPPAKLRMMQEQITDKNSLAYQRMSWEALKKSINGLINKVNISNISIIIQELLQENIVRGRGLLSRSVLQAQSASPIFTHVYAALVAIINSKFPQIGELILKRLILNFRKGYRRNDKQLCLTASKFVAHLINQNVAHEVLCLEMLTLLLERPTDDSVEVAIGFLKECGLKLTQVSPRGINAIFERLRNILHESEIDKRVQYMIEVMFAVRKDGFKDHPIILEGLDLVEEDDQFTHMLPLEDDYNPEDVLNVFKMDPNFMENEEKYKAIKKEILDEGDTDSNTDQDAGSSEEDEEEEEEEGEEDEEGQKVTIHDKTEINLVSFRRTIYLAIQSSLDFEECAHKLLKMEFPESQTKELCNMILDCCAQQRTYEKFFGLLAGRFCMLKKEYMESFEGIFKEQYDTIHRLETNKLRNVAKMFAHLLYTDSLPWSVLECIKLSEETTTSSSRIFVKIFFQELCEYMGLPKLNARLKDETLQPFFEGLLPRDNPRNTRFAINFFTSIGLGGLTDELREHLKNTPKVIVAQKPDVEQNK


Target: T1, CBP-CWC22-S (residues 100-665)
Test: pull-down

binding result | Binder
binds | CWC27-C (354-472) (domain or fragment, human, UniProt Q6UX04 354-472, looked up) DGAVAEYRREKQKYEALRKQQSKKGTSREDQTLALLNQFKSKLTQAIAETPENDIPETEVEDDEGWMSHVLQFEDKSRKVKDASMQDSDTFEIYDPRNPVNKRRREESKKLMREKKERR
binds | PTS-CWC27 (1-472) (natural protein, human, UniProt Q6UX04 1-472, looked up) MSNIYIQEPPTNGKVLLKTTAGDIDIELWSKEAPKACRNFIQLCLEAYYDNTIFHRVVPGFIVQGGDPTGTGSGGESIYGAPFKDEFHSRLRFNRRGLVAMANAGSHDNGSQFFFTLGRADELNNKHTIFGKVTGDTVYNMLRLSEVDIDDDERPHNPHKIKSCEVLFNPFDDIIPREIKRLKKEKPEEEVKKLKPKGTKNFSLLSFGEEAEEEEEEVNRVSQSMKGKSKSSHDLLKDDPHLSSVPVVESEKGDAPDLVDDGEDESAEHDEYIDGDEKNLMRERIAKKLKKDTSANVKSAGEGEVEKKSVSRSEELRKEARQLKRELLAAKQKKVENAAKQAEKRSEEEEAPPDGAVAEYRREKQKYEALRKQQSKKGTSREDQTLALLNQFKSKLTQAIAETPENDIPETEVEDDEGWMSHVLQFEDKSRKVKDASMQDSDTFEIYDPRNPVNKRRREESKKLMREKKERR
